Assay results taken from the Human Domainome abundance scans (Beltran et al. 2025).
± gives the uncertainty stated by the source.

B1: POU domain, class 3, transcription factor 2, residues 262 to 338; numbered along this chain, P20265 (parent)
chain: EDTPTSDDLEQFAKQFKQRRIKLGFTQADVGLALGTLYGNVFSQTTICRFEALQLSFKNMCKLKPLLNKWLEEADSS

Variants of: B1
Test: abundance fitness (aPCA) (normalised: wild type 0, dead -1); higher = more abundant; growth selection in yeast, the domain comes from the species named
Settings: Homo sapiens

Row | Variant | abundance fitness
1 | EDTPTSDDLEQFAKQFKQRRIKLGFTQADVGLALGTLYGNVFSQTTICRFEALQLSFKNMCKLKPLLNKWLELADSS | -0.013 ± 0.06
2 | EDTPTSDDLEQFAKQFKQRRIKLGFTQADVGLALGTLYGNVFSQTTICRFEALQLSFKNMCKLKPLLNKWLEYADSS | 0.129 ± 0.14
3 | EDTPTSDDLEQFAKQFKQRRIKLGFTQADVGLALGTLYGNVFSQTTICRFEALQLSFKNMCKLKPLLNKWLEHADSS | -0.218 ± 0.27
4 | EDTPTSDDLEQFAKQFKQRRIKLGFTQADVGLALGTLYGNVFSQTTICRFEALQLSFKNMCKLKPLLNKWLEQADSS | 0.159 ± 0.098
5 | EDTPTSDDLEQFAKQFKQRRIKLGFTQADVGLALGTLYGNVFSQTTICRFEALQLSFKNMCKLKPLLNKWLEFADSS | -0.057 ± 0.14
6 | EDTPTSDDLEQFAKQFKQRRIKLGFTQADVGLALGTLYGNVFSQTTICRFEALQLSFKNMCKLKPLLNKWLEGADSS | -0.036 ± 0.05
7 | EDTPTSDDLEQFAKQFKQRRIKLGFTQADVGLALGTLYGNVFSQTTICRFEALQLSFKNMCKLKPLLNKWLEVADSS | -0.067 ± 0.073
8 | EDTPTSDDLEQFAKQFKQRRIKLGFTQADVGLALGTLYGNVFSQTTICRFEALQLSFKNMCKLKPLLNKWLECADSS | 0.024 ± 0.12
9 | EDTPTSDDLEQFAKQFKQRRIKLGFTQADVGLALGTLYGNVFSQTTICRFEALQLSFKNMCKLKPLLNKWLEIADSS | -0.009 ± 0.12
10 | EDTPTSDDLEQFAKQFKQRRIKLGFTQADVGLALGTLYGNVFSQTTICRFEALQLSFKNMCKLKPLLNKWLESADSS | -0.071 ± 0.068
11 | EDTPTSDDLEQFAKQFKQRRIKLGFTQADVGLALGTLYGNVFSQTTICRFEALQLSFKNMCKLKPLLNKWLEDADSS | 0.06 ± 0.1
12 | EDTPTSDDLEQFAKQFKQRRIKLGFTQADVGLALGTLYGNVFSQTTICRFEALQLSFKNMCKLKPLLNKWLERADSS | -0.147 ± 0.066
13 | EDTPTSDDLEQFAKQFKQRRIKLGFTQADVGLALGTLYGNVFSQTTICRFEALQLSFKNMCKLKPLLNKWLEWADSS | -0.076 ± 0.073
14 | EDTPTSDDLEQFAKQFKQRRIKLGFTQADVGLALGTLYGNVFSQTTICRFEALQLSFKNMCKLKPLLNKWLEPADSS | -0.416 ± 0.17
15 | EDTPTSDDLEQFAKQFKQRRIKLGFTQADVGLALGTLYGNVFSQTTICRFEALQLSFKNMCKLKPLLNKWLEKADSS | 0.118 ± 0.089
16 | EDTPTSDDLEQFAKQFKQRRIKLGFTQADVGLALGTLYGNVFSQTTICRFEALQLSFKNMCKLKPLLNKWLETADSS | 0.089 ± 0.073
17 | EDTPTSDDLEQFAKQFKQRRIKLGFTQADVGLALGTLYGNVFSQTTICRFEALQLSFKNMCKLKPLLNKWLEAADSS | -0.145 ± 0.081
18 | EDTPTSDDLEQFAKQFKQRRIKLGFTQADVGLALGTLYGNVFSQTTICRFEALQLSFKNMCKLKPLLNKWLENADSS | -0.192 ± 0.34

Row | Variant | abundance fitness
19 | EDTPTSDDLEQFAKQFKQRRIKLGFTQADVGLALGTLYGNVFSQTTICRFEALQLSFKNMCKLKPLLNKWLEECDSS | 0.034 ± 0.046
20 | EDTPTSDDLEQFAKQFKQRRIKLGFTQADVGLALGTLYGNVFSQTTICRFEALQLSFKNMCKLKPLLNKWLEEEDSS | -0.065 ± 0.037
21 | EDTPTSDDLEQFAKQFKQRRIKLGFTQADVGLALGTLYGNVFSQTTICRFEALQLSFKNMCKLKPLLNKWLEEVDSS | 0.041 ± 0.034
22 | EDTPTSDDLEQFAKQFKQRRIKLGFTQADVGLALGTLYGNVFSQTTICRFEALQLSFKNMCKLKPLLNKWLEEKDSS | -0.037 ± 0.051
23 | EDTPTSDDLEQFAKQFKQRRIKLGFTQADVGLALGTLYGNVFSQTTICRFEALQLSFKNMCKLKPLLNKWLEELDSS | -0.09 ± 0.037
24 | EDTPTSDDLEQFAKQFKQRRIKLGFTQADVGLALGTLYGNVFSQTTICRFEALQLSFKNMCKLKPLLNKWLEEGDSS | -0.331 ± 0.03
25 | EDTPTSDDLEQFAKQFKQRRIKLGFTQADVGLALGTLYGNVFSQTTICRFEALQLSFKNMCKLKPLLNKWLEEYDSS | -0.151 ± 0.069
26 | EDTPTSDDLEQFAKQFKQRRIKLGFTQADVGLALGTLYGNVFSQTTICRFEALQLSFKNMCKLKPLLNKWLEEWDSS | -0.172 ± 0.036
27 | EDTPTSDDLEQFAKQFKQRRIKLGFTQADVGLALGTLYGNVFSQTTICRFEALQLSFKNMCKLKPLLNKWLEERDSS | -0.036 ± 0.029
28 | EDTPTSDDLEQFAKQFKQRRIKLGFTQADVGLALGTLYGNVFSQTTICRFEALQLSFKNMCKLKPLLNKWLEESDSS | -0.168 ± 0.039
29 | EDTPTSDDLEQFAKQFKQRRIKLGFTQADVGLALGTLYGNVFSQTTICRFEALQLSFKNMCKLKPLLNKWLEEQDSS | -0.046 ± 0.055
30 | EDTPTSDDLEQFAKQFKQRRIKLGFTQADVGLALGTLYGNVFSQTTICRFEALQLSFKNMCKLKPLLNKWLEETDSS | -0.026 ± 0.05
31 | EDTPTSDDLEQFAKQFKQRRIKLGFTQADVGLALGTLYGNVFSQTTICRFEALQLSFKNMCKLKPLLNKWLEEMDSS | -0.088 ± 0.049
32 | EDTPTSDDLEQFAKQFKQRRIKLGFTQADVGLALGTLYGNVFSQTTICRFEALQLSFKNMCKLKPLLNKWLEEHDSS | -0.032 ± 0.067
33 | EDTPTSDDLEQFAKQFKQRRIKLGFTQADVGLALGTLYGNVFSQTTICRFEALQLSFKNMCKLKPLLNKWLEEPDSS | -0.274 ± 0.068
34 | EDTPTSDDLEQFAKQFKQRRIKLGFTQADVGLALGTLYGNVFSQTTICRFEALQLSFKNMCKLKPLLNKQLEEADSS | -0.728 ± 0.088
35 | EDTPTSDDLEQFAKQFKQRRIKLGFTQADVGLALGTLYGNVFSQTTICRFEALQLSFKNMCKLKPLLNKVLEEADSS | -0.411 ± 0.042
